We go through five molecules from patent publication US20190083587A1 (Novo Nordisk, published 2019).

For orientation: Kd means a measure of binding affinity in units of concentration. Higher therefore signals a looser complex. Usually koff stands for the rate constant with which the complex falls apart. By kon is commonly meant the second-order rate constant of association.

To fix the notation:
B1: hTLT-1 ECD-His (receptor)
chain: QGIVGSLPEVLQAPVGSSILVQCHYRLQDVKAQKVWCRFLPEGCQPLVSSAVDRRAPAGRRTFLTDLGGGLLQVEMVTLQEEDAGEYGCMVDGARGPQILHRVSLNILPPEEEEETHKIGSLAENAFSDPAGSANPLEPSQDEKSIPHHHHHH
notes: Extracellular domain of human TLT-1 with C-terminal His-6 tag; the range 16-168 is computed from these; also called TLT-1-His; His tagged human TLT1
B2: Fab0084 (Fab)
heavy: EVKLLESGGGLVQPGGSLKLSCAASGFDFSRYWMTWVRQAPGKGLEWIGEINPDSSTINYNPSLKDKFIISRDNAKNTLYLQMSEVRSEDTALYYCASGVFTSWGQGTLVTVSAASTKGPSVFPLAPCSRSTSESTAALGCLVKDYFPEPVTVSWNSGALTSGVHTFPAVLQSSGLYSLSSVVTVPSSSLGTKTYTCNVDHKPSNTKVDKRVESKYGPPC
light: DVVMTQTPLSLPVSLGDQASISCRSSQSLVHRNGNTYFHWALQKPGQSPKLLIYKVSNRFSGVPDRFSGSGSGTDFTLKISRVEAEDLGVYFCSQSTHVPYTFGGGTKLEIKRTVAAPSVFIFPPSDEQLKSGTASVVCLLNNFYPREAKVQWKVDNALQSGNSQESVTEQDSKDSTYSLSSTLTLSKADYEKHKVYACEVTHQGLSSPVTKSFNRGECEDQVDPRLIDGK
notes: VH-CH1 (human IgG4) with partial hinge YGPPC (one free Cys); light chain with HPC4 tag; the ends of the ranges are computed; also called antiTLT-1 0084Fab-YGPPC; (0012VH.T60N-CH1-YGPPC)
B3: Fab0004 (Fab)
heavy: EVRLVESGGGLVQPGGSLKLSCATSGFTFSDYFMYWIRQTPEKRLEWVAYISNGGDSSSYPDTVKGRFTISRDNAKNTLYLQMSRLKSEDTAMYYCATNKNWDDYYDMDYWGQGTSVTVSSASTKGPSVFPLAPCSRSTSESTAALGCLVKDYFPEPVTVSWNSGALTSGVHTFPAVLQSSGLYSLSSVVTVPSSSLGTKTYTCNVDHKPSNTKVDKRVESKYGPPC
light: DIVVSQSPSSLAVSAGEKVTMSCKSSQSLLNSRTRKNYLAWYQQKPGQSPKLLIYWASTRESGVPDRFTGSGSGTDFTLTISSVQAEDLAVYYCKQSYNLLTFGAGTKLELKRTVAAPSVFIFPPSDEQLKSGTASVVCLLNNFYPREAKVQWKVDNALQSGNSQESVTEQDSKDSTYSLSSTLTLSKADYEKHKVYACEVTHQGLSSPVTKSFNRGECEDQVDPRLIDGK
notes: VH-CH1 (human IgG4) with partial hinge YGPPC; light chain with HPC4 tag; Entries may include signal peptides; also called antiTLT-1 0004Fab-YGPPC; (0023LC-HPC4)
B4: Fab0074 (Fab)
heavy: QVQLEQSGAELVRPGVSVKISCKGSGYTFTDYSMHWVKQSHAKSLEWIGVISTYYGDVRYNQKFKGKATMTVDKSSSTAYMALARLTSEDSAIYYCARAPMITTGAWFAYWGQGTLVTVSAASTKGPSVFPLAPCSRSTSESTAALGCLVKDYFPEPVTVSWNSGALTSGVHTFPAVLQSSGLYSLSSVVTVPSSSLGTKTYTCNVDHKPSNTKVDKRVESKYGPPC
light: SIVMTQTPKFLLVSAGDRVTITCKASQSVSNDVAWYQQKPGQSPKLLINYASSRYTGIPDRFTGSGYGTDFTFTISTVQAEDLAVYFCQQDYSSPYTFGGGTKLEIERTVAAPSVFIFPPSDEQLKSGTASVVCLLNNFYPREAKVQWKVDNALQSGNSQESVTEQDSKDSTYSLSSTLTLSKADYEKHKVYACEVTHQGLSSPVTKSFNRGECEDQVDPRLIDGK
notes: VH-CH1 (human IgG4) with partial hinge YGPPC (one free Cys); light chain with HPC4 tag; Entries may include signal peptides; also called antiTLT-1 0074Fab-YGPPC; (0051LC-HPC4)
B5: Fab0003 (Fab)
heavy: QVQLQQSGAEPMKPGASVKISCKATGYTFSSHWIEWIKQRPGHGLEWIGEILPGSGNTNYNEKFKGKATFTADTSSNTAYMQLSSLTSEDSAVYYCARGYYGLNYDWYFDVWGAGTTVTVSSASTKGPSVFPLAPCSRSTSESTAALGCLVKDYFPEPVTVSWNSGALTSGVHTFPAVLQSSGLYSLSSVVTVPSSSLGTKTYTCNVDHKPSNTKVDKRVESKYGPPC
light: DIQMTQTTSSLSASLGDRVTISCRASQDISNYLNWYQQKPDGTVKLLIFYTSRLHSGVPSRFSGSGSGTDYSLTISNLEPEDIATYYCQQDTKLPYTFGGGTKLEMKRTVAAPSVFIFPPSDEQLKSGTASVVCLLNNFYPREAKVQWKVDNALQSGNSQESVTEQDSKDSTYSLSSTLTLSKADYEKHKVYACEVTHQGLSSPVTKSFNRGECEDQVDPRLIDGK
notes: VH-CH1 (human IgG4) with partial hinge YGPPC; light chain with HPC4 tag; Entries may include signal peptides; also called antiTLT-1 0003Fab-YGPPC; (0052LC-HPC4)

One assay has as its target T1, FVIIa-Fab1001 (human, UniProt P08709 61-466, linker attached as sialic acid derivative to an N-linked glycan (ST3Gal-III); gamma-carboxylated Glu in the Gla domain; unpaired hinge Cys (YGPPC) coupled by maleimide to the 3 kDa PEG linker).
T1 construct: FVIIa is the two-chain form; also called conjugate of anti TLT-1-FAB fragment (Fab0084) to FVIIa via a 3 kDa PEG linker
Put plainly: SPR Biacore T200, His-tagged TLT-1 captured via anti 6xHis mAb, analyte 29.29-0.45 nM, 25 C. The method, then:
Method: An anti 6×his antibody was immobilised to a level of approx 9000 RU on a CM5 chip (0.5 mg/ml diluted in Na-acetate, pH 5.0) using the standard procedure recommended by the supplier. Human his-tagged TLT-1 in a concentration of 100 ng/ml was used as ligand. FVIIa-Fab1001 in two-fold dilutions from 29.29 nM to 0.45 nM was used as analytes. The running and dilution buffer was made from: 10 mM HEPES, 150 mM NaCl, 3 mM EDTA, 0.005% p20, pH 7.4. Regeneration was obtained by 3 M MgCl₂. The experiment was run at 25 degree Celsius. Determination of kinetic and binding constants (kₒₙ, koff, KD) was obtained assuming a 1:1 interaction of TLT1 and FVIIa-Fab1001 using the Biacore T200 evaluation software (Table 19).
A general note: In SPR one partner is held on a chip, and binding of the other changes the refractive index at the surface.

The next assay concerns the target T2, human fibrinogen (human, UniProt P02671 20-629; P02675 31-491; P02679 27-437, limits assumed).
T2 construct: the chain composition (two each of alpha, beta, gamma) is from general knowledge; also called HCI-0150R Haematologic technologies
T2 sequence (looked up) 1: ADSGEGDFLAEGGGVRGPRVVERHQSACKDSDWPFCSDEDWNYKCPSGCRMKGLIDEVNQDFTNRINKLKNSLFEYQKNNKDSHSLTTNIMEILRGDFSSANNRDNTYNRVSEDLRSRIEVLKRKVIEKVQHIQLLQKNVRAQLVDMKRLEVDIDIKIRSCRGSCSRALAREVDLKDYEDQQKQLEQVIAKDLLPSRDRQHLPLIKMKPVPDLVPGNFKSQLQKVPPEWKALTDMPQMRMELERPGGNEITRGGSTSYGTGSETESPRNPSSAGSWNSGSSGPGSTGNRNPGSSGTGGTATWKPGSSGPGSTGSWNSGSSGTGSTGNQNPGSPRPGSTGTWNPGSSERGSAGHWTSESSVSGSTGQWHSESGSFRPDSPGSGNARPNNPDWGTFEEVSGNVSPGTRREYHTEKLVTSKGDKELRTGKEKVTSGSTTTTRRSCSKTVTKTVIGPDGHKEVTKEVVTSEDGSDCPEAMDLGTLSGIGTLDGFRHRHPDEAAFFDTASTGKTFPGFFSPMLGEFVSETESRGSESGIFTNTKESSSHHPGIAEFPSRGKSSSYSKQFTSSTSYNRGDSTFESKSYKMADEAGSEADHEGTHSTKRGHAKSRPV
T2 sequence (looked up) 2: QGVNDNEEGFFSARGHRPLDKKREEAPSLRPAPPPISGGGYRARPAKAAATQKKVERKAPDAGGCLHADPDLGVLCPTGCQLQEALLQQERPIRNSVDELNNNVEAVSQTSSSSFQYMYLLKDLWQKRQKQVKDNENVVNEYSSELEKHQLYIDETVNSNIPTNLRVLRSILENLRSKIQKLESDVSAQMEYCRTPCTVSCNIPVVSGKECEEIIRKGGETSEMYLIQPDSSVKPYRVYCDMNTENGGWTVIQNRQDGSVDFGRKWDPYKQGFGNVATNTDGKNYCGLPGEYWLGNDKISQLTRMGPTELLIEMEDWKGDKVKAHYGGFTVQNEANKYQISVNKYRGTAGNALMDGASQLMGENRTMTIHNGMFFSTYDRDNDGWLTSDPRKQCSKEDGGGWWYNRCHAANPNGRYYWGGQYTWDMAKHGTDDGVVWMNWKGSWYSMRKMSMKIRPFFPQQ
T2 sequence (looked up) 3: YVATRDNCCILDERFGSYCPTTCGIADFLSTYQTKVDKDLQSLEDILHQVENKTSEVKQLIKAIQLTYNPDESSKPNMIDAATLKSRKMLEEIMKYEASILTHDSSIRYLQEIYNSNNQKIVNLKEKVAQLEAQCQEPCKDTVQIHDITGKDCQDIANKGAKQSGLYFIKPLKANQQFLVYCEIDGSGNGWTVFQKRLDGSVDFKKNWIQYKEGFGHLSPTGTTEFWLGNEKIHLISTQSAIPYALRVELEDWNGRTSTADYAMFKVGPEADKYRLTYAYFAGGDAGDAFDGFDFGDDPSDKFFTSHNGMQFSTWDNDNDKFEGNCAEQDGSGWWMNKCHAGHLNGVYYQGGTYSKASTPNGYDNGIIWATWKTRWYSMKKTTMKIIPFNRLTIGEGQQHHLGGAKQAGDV
Kind of assay: SPR Biacore T100, TLT-1 immobilised on CM5, fibrinogen 200-0.2 nM as analyte. The method, then: Human TLT-1 was immobilised to a level of approx 1000 RU on a CM5 chip (50 μg/ml diluted in Na-acetate, pH 4.0) using the standard procedure recommended by the supplier. Four-fold dilutions of human fibrinogen from 200 nM to 0.2 nM were tested for binding to the immobilized TLT-1. Running and dilution buffer: 10 mM HEPES, 150 mM, 0.005% p20, pH 7.4. Regeneration was obtained by 10 mM Glycine, pH 1.7.
Determination of kinetic and binding constants (kₒₙ, koff, KD) was obtained assuming a 1:1 interaction of TLT-1 and fibrinogen using the Biacore T100 evaluation software (Table 11).

In the next assay the target is T3, FVIIa-Fab1029 (human, UniProt P08709 61-466, linker attached as sialic acid derivative to an N-linked glycan (ST3Gal-III); gamma-carboxylated Glu in the Gla domain; unpaired hinge Cys (YGPPC) coupled by maleimide to the 10 kDa PEG linker).
T3 construct: FVIIa is the two-chain form cleaved between Arg152 and Ile153; also called conjugate of anti TLT-1-FAB fragment (Fab0084) to FVIIa, 10 kDa PEG linker
Put plainly: SPR Biacore T100, TLT-1 immobilised on CM5, analyte 20-0.3 nM. The method, then:
TLT-1 was immobilized directly to a CM5 chip to a level of approx 2000 RU (50 ug/ml diluted in Na-acetate, pH 4.0) using the standard procedure recommended by the supplier and reagents provided in Table 16. Two-fold dilutions of FVIIa-Fab1029 and FIX-Fab0135 from 20 nM to 0.3 nM were tested for binding to TLT-1. Running and dilution buffer: 10 mM HEPES, 150 mM, 0.005% p20, pH 7.4. Regeneration was obtained by 10 mM Glycine, pH 1.7. Determination of kinetic and binding constants (kₒₙ, koff, KD) was obtained assuming a 1:1 interaction of TLT-1 and FVIIa-Fab1029 or FIX-Fab0135 using the Biacore T100 evaluation software.

The assay “hTLT-1 ECD-His” has as its target B1. Put plainly: SPR Biacore, TLT-1-His captured via anti-His mAb, Fab as analyte. The method, then:
Method: The mAbs of interest were either immobilized directly to a CM5 chip or by capture via a human Fc capture mAb immobilized to a CM5 chip, while TLT-1-His was immobilized by capture via an anti-His mAb CM5 chip for analysis of Fabs.
TLT-1-His capture via anti-His mAb (R&D #MAB050): The anti-His mAb was immobilised to approx 9.000 RU. The TLT-1-His was added to a level of approx 30-40 RU (10 μg/ml diluted in 10 mM Hepes, 150 mM NaCl, 3 mM EDTA, 0.005% Tween-20) using the standard procedure recommended by the supplier. 8-fold dilutions of Fabs from 3 to 0.047 μg/ml were tested for binding to the TLT-1-His. Running and dilution buffer: 10 mM Hepes, 150 mM NaCl, 3 mM EDTA, 0.005% Tween-20. Regeneration was obtained by 3 M MgCl₂.

T3 sequence (P08709 61-466 limits assumed): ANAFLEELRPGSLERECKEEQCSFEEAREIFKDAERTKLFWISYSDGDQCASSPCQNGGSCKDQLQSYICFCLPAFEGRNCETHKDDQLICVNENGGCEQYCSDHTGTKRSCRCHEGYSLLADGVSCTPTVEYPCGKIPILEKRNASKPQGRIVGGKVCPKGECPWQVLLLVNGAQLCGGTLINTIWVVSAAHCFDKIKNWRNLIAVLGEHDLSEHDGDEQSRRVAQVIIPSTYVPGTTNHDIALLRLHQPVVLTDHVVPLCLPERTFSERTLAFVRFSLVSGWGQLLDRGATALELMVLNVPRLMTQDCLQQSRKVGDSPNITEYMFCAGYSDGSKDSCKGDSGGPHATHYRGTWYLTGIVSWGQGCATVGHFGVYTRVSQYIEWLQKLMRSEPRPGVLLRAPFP
T1 sequence (P08709 61-466 limits assumed): as above

Regarding B1, in the assay with FVIIa-Fab1001, binding was characterised by a dissociation constant (Kd) of 3.99 nM, the koff is 0.00319 s⁻¹ and the kon was determined as 801000 M⁻¹ s⁻¹. Further, in the assay with human fibrinogen, the affinity, expressed as Kd, was 94 nM; the koff turned out to be 0.000392 s⁻¹; the kon came to 4170 M⁻¹ s⁻¹. In the assay with FVIIa-Fab1029, the Kd came to 18.3 nM, the koff was found to be 0.00726 s⁻¹ and the kon was 397000 M⁻¹ s⁻¹.
B2: in the assay with hTLT-1 ECD-His, binding was characterised by a dissociation constant (Kd) of 0.99 nM, the koff turned out to be 0.00524 s⁻¹ and the kon is 5.31e+06 M⁻¹ s⁻¹.
As for B3, in the assay with hTLT-1 ECD-His, the Kd was 1.7 nM, the koff came to 0.00195 s⁻¹ and the kon amounted to 1.15e+06 M⁻¹ s⁻¹.
Taken in the same sequence, the figures for B4 were 2.38 nM, 0.00798 s⁻¹ and 3.35e+06 M⁻¹ s⁻¹.
The like results for B5 were, in that order, 5.2 nM, 0.00279 s⁻¹ and 536000 M⁻¹ s⁻¹.
